Source: patent US20220025008A1 (FAPON BIOTECH, published 2022)

T1: Recombinant NT antigen (N-terminal pro-brain natriuretic peptide, NT-proBNP) (human, UniProt P16860 27-102)
T1 construct: domain: N-terminal pro-brain natriuretic peptide (NT-proBNP); also called recombinant NT protein; N-terminal pro-B-type natriuretic peptide
T1 sequence (looked up): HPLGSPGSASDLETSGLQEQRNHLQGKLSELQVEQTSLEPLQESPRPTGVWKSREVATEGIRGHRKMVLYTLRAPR


target: T1, Recombinant NT antigen (N-terminal …); assay: indirect ELISA, KD calculated from half-max OD at 4 coating concentrations
Summary of the method: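 Plates coated overnight at 4 °C with recombinant NT antigen at 3, 1.5, 0.75 or 0.375 μg/ml, blocked with 20% BSA. Antibody, 2-fold dilutions from 1000 to 0.977 ng/ml, was incubated 30 min at 37 °C, then detected with HRP anti-IgG, OD450/630. KD was derived from half-max OD across coating levels.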

Binder	Kd
Mutation 1-18 (antibody, V domains shown) VH: QVRLQESGPSQVKPAQTLSLTCAISGFSITTYYIDWVRHTPGKPPEWLAQMTKDGNAVHNPTVRSRLSITRDTSKSQVFLKLTGVTTEDTAVYYCVRGIIDWGPGLLVTVSS VL: QAVLTQPSSVSRSLGQTVSITCSGSSDNVGFGDYINWFQLIPGSAPKTLIFGATSRIRGVPDRFSGSRSGNTATLTINSLQAEDEADYYCGSPNSRNYVFGSGTRLTVLS	1.73 nM
Mutation 1-9 (antibody) heavy: QVRLQESGPSQVKPAQTLSLTCAISGFSITTYYIDWVRHTPGKPPEWLAQMTKDGNAVHQPTLRSRLSITRDTSKSQVFLKLTGVTTEDTAVYYCVRGLIDFGPGLLVTVSSASTTPPKVYPLTSCCGDTSSSIVTLGCLVSSYMPEPVTVTWNSGALTSGVHTFPAILQSSGLYSLSSVVTVPASTSGAQTFICNVAHPASSTKVDKRVEPGCPDPCKHCRCPPPELPGGPSVFIFPPKPKDTLTISGTPEVTCVVVDVGQDDPEVQFSWFVDNVEVRTARTKPREEQFNSTFRVVSALPIQHQDWTGGKEFKCKVHNEGLPAPIVRTISRTKGQAREPQVYVLAPPQEELSKSTLSVTCLVTGFYPDYIAVEWQKNGQPESEDKYGTTTSQLDADGSYFLYSRLRVDKNSWQEGDTYACVVMHEALHNHYTQKSISKPPGK light: QAVLTQPSSVSRSLGQTVSITCSGSSDQVGFGDYINWFQLIPGSAPKTLIFGASSRIRGVPDRFSGSRSGNTATLTINSLQAEDEADYYCGSANSRGGYVFGSGTRLTVLSQPKSAPSVTLFPPSKEELDTNKATVVCLISDFYPGSVNVVWKADGSTINQNVKTTQASKQSNSKYAASSYLTLTGSEWKSKSSYTCEVTHEGSTVTKTVKPSECS	1.56 nM
Mutation 1-17 (antibody) heavy: QVRLQESGPSQVKPAQTLSLTCAISGFSVTTYYVDWVRHTPGKPPEWLAQMTKDGNAVHNPTVRSRLSITRDTSKSQVFLKLTGVTTEDTAVYYCVRGVIDFGPGLLVTVSSASTTPPKVYPLTSCCGDTSSSIVTLGCLVSSYMPEPVTVTWNSGALTSGVHTFPAILQSSGLYSLSSVVTVPASTSGAQTFICNVAHPASSTKVDKRVEPGCPDPCKHCRCPPPELPGGPSVFIFPPKPKDTLTISGTPEVTCVVVDVGQDDPEVQFSWFVDNVEVRTARTKPREEQFNSTFRVVSALPIQHQDWTGGKEFKCKVHNEGLPAPIVRTISRTKGQAREPQVYVLAPPQEELSKSTLSVTCLVTGFYPDYIAVEWQKNGQPESEDKYGTTTSQLDADGSYFLYSRLRVDKNSWQEGDTYACVVMHEALHNHYTQKSISKPPGK light: QAVLTQPSSVSRSLGQTVSITCSGSSDNVGFGDYINWFQLIPGSAPKTLIFGATSRVRGVPDRFSGSRSGNTATLTINSLQAEDEADYYCGSGNSRNYVFGSGTRLTVLSQPKSAPSVTLFPPSKEELDTNKATVVCLISDFYPGSVNVVWKADGSTINQNVKTTQASKQSNSKYAASSYLTLTGSEWKSKSSYTCEVTHEGSTVTKTVKPSECS	3.39 nM
Mutation 1-11 (antibody) heavy: QVRLQESGPSQVKPAQTLSLTCAISGFSITTYYVDWVRHTPGKPPEWLAQMTKDGNAVHQPTIRSRLSITRDTSKSQVFLKLTGVTTEDTAVYYCVRGVIDFGPGLLVTVSSASTTPPKVYPLTSCCGDTSSSIVTLGCLVSSYMPEPVTVTWNSGALTSGVHTFPAILQSSGLYSLSSVVTVPASTSGAQTFICNVAHPASSTKVDKRVEPGCPDPCKHCRCPPPELPGGPSVFIFPPKPKDTLTISGTPEVTCVVVDVGQDDPEVQFSWFVDNVEVRTARTKPREEQFNSTFRVVSALPIQHQDWTGGKEFKCKVHNEGLPAPIVRTISRTKGQAREPQVYVLAPPQEELSKSTLSVTCLVTGFYPDYIAVEWQKNGQPESEDKYGTTTSQLDADGSYFLYSRLRVDKNSWQEGDTYACVVMHEALHNHYTQKSISKPPGK light: QAVLTQPSSVSRSLGQTVSITCSGSSDQVGFGDYVNWFQLIPGSAPKTLIFGASSRVRGVPDRFSGSRSGNTATLTINSLQAEDEADYYCGSPNSRGGYVFGSGTRLTVLSQPKSAPSVTLFPPSKEELDTNKATVVCLISDFYPGSVNVVWKADGSTINQNVKTTQASKQSNSKYAASSYLTLTGSEWKSKSSYTCEVTHEGSTVTKTVKPSECS	1.52 nM

The next lines start with the values.

Kd	Binder
1.49 nM	Mutation 1-29 (antibody) heavy: QVRLQESGPSQVKPAQTLSLTCAISGFSITTYYVDWVRHTPGKPPEWLAQMTKDGNAVHNPTVRSRLSITRDTSKSQVFLKLTGVTTEDTAVYYCVRGVIDFGPGLLVTVSSASTTPPKVYPLTSCCGDTSSSIVTLGCLVSSYMPEPVTVTWNSGALTSGVHTFPAILQSSGLYSLSSVVTVPASTSGAQTFICNVAHPASSTKVDKRVEPGCPDPCKHCRCPPPELPGGPSVFIFPPKPKDTLTISGTPEVTCVVVDVGQDDPEVQFSWFVDNVEVRTARTKPREEQFNSTFRVVSALPIQHQDWTGGKEFKCKVHNEGLPAPIVRTISRTKGQAREPQVYVLAPPQEELSKSTLSVTCLVTGFYPDYIAVEWQKNGQPESEDKYGTTTSQLDADGSYFLYSRLRVDKNSWQEGDTYACVVMHEALHNHYTQKSISKPPGK light: QAVLTQPSSVSRSLGQTVSITCSGSSDNVGFGDYINWFQLIPGSAPKTLIFGASSRVRGVPDRFSGSRSGNTATLTINSLQAEDEADYYCGSGNSRNYVFGSGTRLTVLSQPKSAPSVTLFPPSKEELDTNKATVVCLISDFYPGSVNVVWKADGSTINQNVKTTQASKQSNSKYAASSYLTLTGSEWKSKSSYTCEVTHEGSTVTKTVKPSECS
1.51 nM	Mutation 1-19 (antibody) heavy: QVRLQESGPSQVKPAQTLSLTCAISGFSITTYYLDWVRHTPGKPPEWLAQMTKDGNAVHQPTVRSRLSITRDTSKSQVFLKLTGVTTEDTAVYYCVRGIIDFGPGLLVTVSSASTTPPKVYPLTSCCGDTSSSIVTLGCLVSSYMPEPVTVTWNSGALTSGVHTFPAILQSSGLYSLSSVVTVPASTSGAQTFICNVAHPASSTKVDKRVEPGCPDPCKHCRCPPPELPGGPSVFIFPPKPKDTLTISGTPEVTCVVVDVGQDDPEVQFSWFVDNVEVRTARTKPREEQFNSTFRVVSALPIQHQDWTGGKEFKCKVHNEGLPAPIVRTISRTKGQAREPQVYVLAPPQEELSKSTLSVTCLVTGFYPDYIAVEWQKNGQPESEDKYGTTTSQLDADGSYFLYSRLRVDKNSWQEGDTYACVVMHEALHNHYTQKSISKPPGK light: QAVLTQPSSVSRSLGQTVSITCSGSSDNVGFGDYLNWFQLIPGSAPKTLIFGATSRLRGVPDRFSGSRSGNTATLTINSLQAEDEADYYCGSGNSRNYVFGSGTRLTVLSQPKSAPSVTLFPPSKEELDTNKATVVCLISDFYPGSVNVVWKADGSTINQNVKTTQASKQSNSKYAASSYLTLTGSEWKSKSSYTCEVTHEGSTVTKTVKPSECS
0.81 nM	Mutation 1-23 (antibody) heavy: QVRLQESGPSQVKPAQTLSLTCAISGFSLTTYYVDWVRHTPGKPPEWLAQMTKDGNAVHQPTIRSRLSITRDTSKSQVFLKLTGVTTEDTAVYYCVRGVIDFGPGLLVTVSSASTTPPKVYPLTSCCGDTSSSIVTLGCLVSSYMPEPVTVTWNSGALTSGVHTFPAILQSSGLYSLSSVVTVPASTSGAQTFICNVAHPASSTKVDKRVEPGCPDPCKHCRCPPPELPGGPSVFIFPPKPKDTLTISGTPEVTCVVVDVGQDDPEVQFSWFVDNVEVRTARTKPREEQFNSTFRVVSALPIQHQDWTGGKEFKCKVHNEGLPAPIVRTISRTKGQAREPQVYVLAPPQEELSKSTLSVTCLVTGFYPDYIAVEWQKNGQPESEDKYGTTTSQLDADGSYFLYSRLRVDKNSWQEGDTYACVVMHEALHNHYTQKSISKPPGK light: QAVLTQPSSVSRSLGQTVSITCSGSSDQVGFGDYVNWFQLIPGSAPKTLIFGAYSRVRGVPDRFSGSRSGNTATLTINSLQAEDEADYYCGSPNSRGGYVFGSGTRLTVLSQPKSAPSVTLFPPSKEELDTNKATVVCLISDFYPGSVNVVWKADGSTINQNVKTTQASKQSNSKYAASSYLTLTGSEWKSKSSYTCEVTHEGSTVTKTVKPSECS
